Results reported in patent publication US8703915B2, “Mutant proteins and methods for producing them” (Heptares Therapeutics Limited, priority 2009, dated 2014).
“Also recorded” adds a separate entry of the source.

How the values were obtained:
A2A receptor [1] = target: T1, A2A receptor (Homo sapiens, UniProt P29274, L48A); test: cAMP functional assay (HTRF), NECA stimulation of CHO cells over-expressing A2A receptor; type: cell-based; conditions: cAMP, relative to A2A-WT
T1 construct: transfected with 100 ng of pcDNA-3-A2A(2-316) pre-incubated with 0.3 μL of GeneJuice; expressed in transfected cells; host or cells: CHO cells, transient
Method: (§1) In order to stabilise an agonist-bound conformation, a systematic Alanine-scan was performed in order to identify mutations that may stabilise the A2A receptor bound to its full agonist NECA. In this A2A agonist-bound study, L2.46 (L48A) is the most stabilising single mutant. When NECA is bound to the solubilised receptor, removing the L48 side chain (in A2A-L48A) dramatically increases the thermostability of the ligand-receptor complex resulting in an increase of 14° C. over the wild type receptor in the detergent DDM (FIG. 5a). […] We evaluated the signalling property of the A2A receptor by over-expressing the receptor in CHO cells. A2A agonist stimulation triggers the signal transduction through the Gs-trimeric complex and increases the intracellular cAMP level. The increase in intracellular cAMP can be detected by and quantified by using an anti-cAMP Mab antibody competition assay. […] However the signalling efficacy is reduced to 30% (FIG. 6).
(§2) This assay takes advantage of Homogeneous Time-Resolved Fluorescence (HTRF) using cAMP labeled with the dye d2 in presence of an anti-cAMP Mab labeled with Cryptate. The method is based on a competitive immunoassay between cAMP produced by cells and the cAMP labeled with the dye d2. CHO cells were grown using Glutamax Ham's F12, 10% FBS in 96-well plates, clear bottom and Black wall (Costar). Cells were seeded at a density of 12500 cells per well, grown overnight, washed with PBS and then transfected with 100 ng of pcDNA-3-A2A(2-316) pre-incubated with 0.3 μL of GeneJuice (Novagen) per well. After 48 hours of receptor expression, the medium was removed, the cells were washed in PBS then stimulated by using different NECA concentrations, in the presence of Rolipram (50 μM) and Adenosine deaminase in a total volume of 50 μL for 30 minutes. Dilution was realised in Hamf's F12/cAMP-d2 conjugate according to the manufacturer protocol, without serum. […] The plate was incubated at room temperature for 1 hour and then read using the Pherastar 96-well time-resolved fluorescence plate reader (Ex 340 nm; Em 665/620 nm).

A2A receptor [2] = test: as above; type: cell-based, human; conditions: intracellular cAMP, CHO cells
Method: as §1, §2

A2A receptor [3] = test: Thermostability of A2A receptor in NECA agonist-bound state, solubilised in DDM; type: physicochemical, human
Method: as §1
A2AR-(2-316) expression was carried out by using the pRG/III-hs-MBP E. coli expression vector and DH5α cells. Cells were grown at 37° C. in 2 L flasks containing 500 mL of 2×TY medium supplemented with Ampicillin (100 μg/mL) and glucose (0.2% w/v). At OD600≈0.7, IPTG and theophylline were added at final concentrations respectively of 0.5 mM and 100 μM, and the temperature was reduced to 20° C. After 22 to 24 hours, cells were harvested in aliquots of 14 mL, centrifuged for 30 min and stored at −20° C. Both 5HT2C and M4 receptors were transiently expressed in HEK293T cells using GeneJuice transfection reagent used according to the manufacturers guidelines.
An aliquot of E. coli cells expressing wild type or mutant A2AR-(2-316) (14 mL) was thawed on ice and cells were resuspended in 500 μL of buffer A (50 mM Tris HCl mM/pH 7.4; 0.4 M NaCl, 250 μg/mL lysozyme (Sigma), 1 mg/mL DNAse I (Sigma), supplemented with complete EDTA-free Protease inhibitor cocktail (Roche)) and incubated 1 hour at 4° C. Samples were then sonicated 1 min at 4° C. using a cup-horn sonicator. […]

A2A receptor [4] = test: Thermostability of A2A receptor in ZM241385 antagonist-bound state, solubilised in DDM; type: physicochemical, human; conditions: ZM antagonist
Method: as §1
A2AR-(2-316) expression was carried out by using the pRG/III-hs-MBP E. coli expression vector and DH5α cells. Cells were grown at 37° C. in 2 L flasks containing 500 mL of 2×TY medium supplemented with Ampicillin (100 μg/mL) and glucose (0.2% w/v). At OD600≈0.7, IPTG and theophylline were added at final concentrations respectively of 0.5 mM and 100 μM, and the temperature was reduced to 20° C. […]

CRF1 = test: Thermostability of CRF1 bound to antagonist CP-376395, purified in DDM; type: physicochemical, human; conditions: antagonist-bound state (CP-376395), purified in DDM
Method: In order to stabilise CRF1 in the antagonist conformation, a systematic alanine-scan was performed to identify mutations that stabilise receptors bound to the antagonist ligand CP-376395. Mutating I2.58 to alanine (I163A) confers significant stabilisation in CRF1, increasing the thermal stability by 3.9 (±0.5)° C. (FIG. 15).
CRF1 receptors were transiently expressed in HEK293T cells on 10 cm plates using GeneJuice transfection reagent used according to manufacturers guidelines.
Cells expressing CRF1 were harvested in PBS approximately 40 hours post-transfection and re-suspended in 950 μl Re-suspension buffer (50 mM Tris-HCl, 150 mM NaCl, 2× Complete EDTA-free Protease inhibitor cocktail (Roche), pH7.5). Cells were incubated with 120 nM CP-376395 and 30 nM [^3H]-CP-376395 at 37° C. for 2 hours before transferring to ice for 5 minutes. The receptors were solubilised by the addition of 1% DDM and incubated at 4° C. for 1 hour with gentle agitation. Insoluble material was removed by centrifugation at 16000×g for 10 minutes at 4° C. The solubilised receptors were partially purified with Ni-NTA agarose (Qiagen). Ni-NTA resin was equilibrated in Equilibration buffer (50 mM Tris-HCl, 150 mM NaCl, 2× Complete EDTA-free Protease inhibitor cocktail (Roche), 0.025% DDM, pH7.5) and 400 μl of a 50:50 resin slurry was added to each sample. Resin slurries were incubated at 4° C. for 1 hour 30 minutes with gentle agitation to bind receptors. Resin slurries were then transferred to a batch column filter plate (Chromabond) and centrifuged at 1000×g for 1 minute, discarding the flow-through. Resin was washed twice with 1 ml of Wash buffer (50 mM Tris-HCl, 150 mM NaCl, 2× Complete EDTA-free Protease inhibitor cocktail (Roche), 0.025% DDM, 20 mM Imidazole, pH7.5) and then eluted in 1 ml of Elution buffer (50 mM Tris-HCl, 150 mM NaCl, 2× Complete EDTA-free Protease inhibitor cocktail (Roche), 0.025% DDM, 100 mM histidine, 30 nM [^3H]-CP-376395, 120 nM CP-376395, pH7.5) by resuspension at 4° C. for 30 minutes. Eluted samples were used directly in the thermostability assay. […]

OX2 receptor = test: Thermostability of OX2 receptor bound to antagonist EMPA; type: physicochemical, human; conditions: bound to antagonist EMPA
Method: Transiently transfected mammalian cells expressing M4 were harvested about 40 hours post transfection and the receptors were solubilised in 50 mM Tris pH 7.5/250 mM NaCl/1% DDM/EDTA free protease inhibitor mix for 1 hour rotating at 4° C. The solubilised lysate was then cleared by centrifugation at 13000 rpm for 15 minutes at 4° C. The solubilised receptors were then purified on Ni-NTA beads and eluted with 100 mM histidine. The eluted receptor was used in radioligand binding assay. Thermostability of M4 was measured using 25 μL of purified receptor mixed with 95 μL of 12 nM [^3H]-NMS (final concentration of 10 nM). The sample was incubated for 60 min at 4° C., then 30 min at the specified temperature and then 30 min at 4° C. Receptor bound and free radioligand were separated using a 96-well plate gel filtration assay.
A tandem alanine and leucine scanning mutagenesis strategy was used to identify mutations that enhanced the thermostability of OX2 bound to the small-molecule antagonist EMPA.
Thermostability assays were preformed on partially purified receptors as described for M4, with the following amendments. Cell lysates were solubilised in 50 mM Tris pH7.4, 150 mM NaCl, 1% DDM supplemented with 1× complete EDTA free protease inhibitor cocktail (Roche). Radioligand binding reactions were set up using 1/10 volume eluted receptor mixed with 20 nM ^3H-EMPA (final concentration) per temperature point.

B1: A2A-L48A: human adenosine A2A receptor mutant, Leu 48 (L2.46) replaced by alanine (protein, UniProt P29274 1-412, looked up, variant L48A)
Adenosine receptor A2a: MPIMGSSVYITVELAIAVLAILGNVLVCWAVWLNSNLQNVTNYFVVSAAAADIAVGVLAIPFAITISTGFCAACHGCLFIACFVLVLTQSSIFSLLAIAIDRYIAIRIPLRYNGLVTGTRAKGIIAICWVLSFAIGLTPMLGWNNCGQPKEGKNHSQGCGEGQVACLFEDVVPMNYMVYFNFFACVLVPLLLMLGVYLRIFLAARRQLKQMESQPLPGERARSTLQKEVHAAKSLAIIVGLFALCWLPLHIINCFTFFCPDCSHAPLWLMYLAIVLSHTNSVVNPFIYAYRIREFRQTFRKIIRSHVLRQQEPFKAAGTSARVLAAHGSDGEQVSLRLNGHPPGVWANGSAPHPERRPNGYALGLVSGGSAQESQGNTGLPDVELLSHELKGVCPEPPGLDDPLAQDGAGVS
- signalling efficacy (A2A receptor [1]): 30%
- pEC50 (A2A receptor [2]): 8.10±0.39
- Tm (A2A receptor [3]; NECA agonist-bound state (400 nM), solubilised in DDM): 42.5±1.0 °C
- increase in thermostability over the wild type receptor (A2A receptor [3]; NECA bound, detergent DDM): 14 °C
- antagonist binding (A2A receptor [4]): abolishes the binding of the antagonist; also recorded: no binding detected

B2: CRF1-WT: wild type human CRF1 receptor (protein, UniProt P34998 24-415, looked up)
Corticotropin-releasing …: SLQDQHCESLSLASNISGLQCNASVDLIGTCWPRSPAGQLVVRPCPAFFYGVRYNTTNNGYRECLANGSWAARVNYSECQEILNEEKKSKVHYHVAVIINYLGHCISLVALLVAFVLFLRLRSIRCLRNIIHWNLISAFILRNATWFVVQLTMSPEVHQSNVGWCRLVTAAYNYFHVTNFFWMFGEGCYLHTAIVLTYSTDRLRKWMFICIGWGVPFPIIVAWAIGKLYYDNEKCWFGKRPGVYTDYIYQGPMILVLLINFIFLFNIVRILMTKLRASTTSETIQYRKAVKATLVLLPLLGITYMLFFVNPGEDEVSRVVFIYFNSFLESFQGFFVSVFYCFLNSEVRSAIRKRWHRWQDKHSIRARVARAMSIPTSPTRVSFHSIKQSTAV
- Tm (CRF1): 26.8 °C

B3: OX2WT: wild type human orexin 2 receptor (protein, UniProt O43614 1-444, looked up)
Orexin receptor type 2: MSGTKLEDSPPCRNWSSASELNETQEPFLNPTDYDDEEFLRYLWREYLHPKEYEWVLIAGYIIVFVVALIGNVLVCVAVWKNHHMRTVTNYFIVNLSLADVLVTITCLPATLVVDITETWFFGQSLCKVIPYLQTVSVSVSVLTLSCIALDRWYAICHPLMFKSTAKRARNSIVIIWIVSCIIMIPQAIVMECSTVFPGLANKTTLFTVCDERWGGEIYPKMYHICFFLVTYMAPLCLMVLAYLQIFRKLWCRQIPGTSSVVQRKWKPLQPVSQPRGPGQPTKSRMSAVAAEIKQIRARRKTARMLMIVLLVFAICYLPISILNVLKRVFGMFAHTEDRETVYAWFTFSHWLVYANSAANPIIYNFLSGKFREEFKAAFSCCCLGVHHRQEDRLTRGRTSTESRKSLTTQISNFDNISKLSEQVVLTSISTLPAANGAGPLQNW
- Tm (OX2 receptor): 28.47 °C
